Target: T1, oxMIF (oxidized macrophage migration inhibitory factor) in human tissue cryosections (human, UniProt P14174 2-115)
T1 construct: mature; Native oxMIF isoform in unfixed, air-dried cryosections of patient tissue (kidney, pancreas, breast, brain, lung, colon); also called oxidized MIF
Experiment: IHC, biotinylated RAM9 5 µg/ml on unfixed kidney cryosections, streptavidin-HRP/DAB
Protocol: The kidney tissue slides were prepared according to state of the art techniques known to experts, either fresh frozen or OCT embedded, sectioned at 10 μm and stored at <=−80° C. after sectioning. All following steps were done at ambient temperature. The cryo-sections were air dried for 30 min and unspecific binding was blocked with blocking buffer (20% Normal Goat Serum/2% Bovine Serum Albumin/0.2% Fish Gelatine in TBS) for 30 min. The sections were then incubated with a primary, preferably biotinylated, anti-oxMIF Antibody (biotinylated-RAM9) in primary antibody dilution buffer (2% Bovine Serum Albumin/0.2% Fish Gelatine in TBS) at a concentration of 5 μg/ml for 60 min. After washing in TBS, the specimen was fixed in 4% PBS buffered formaldehyde for 15-20 min. Excess formaldehyde was removed by washing in TBS for 10 min. The staining was done using VECTASTAIN Elite ABC Reagent (HRP conjugated Streptavidin) for 30 min. Then the sections were extensively washed again 10 min in TBS. By using ImmPACT DAB Substrate for 10 minutes the staining was visualized as a brown color, which is reflected in FIG. 1A by a dark grey. The slides were washed in TBS and the nuclei were counterstained with Haematoxylin for 1-2 min. By washing the slides in tap water the color of the counter stain changes from violet to blue. […]

T1 sequence (P14174 2-115): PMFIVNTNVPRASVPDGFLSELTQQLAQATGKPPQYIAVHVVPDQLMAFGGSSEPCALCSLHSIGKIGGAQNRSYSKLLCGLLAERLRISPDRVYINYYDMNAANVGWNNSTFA

binding result: binds
B1: anti-oxMIF antibody RAM9 (antibody, V domains shown)
VH: EVQLLESGGGLVQPGGSLRLSCAASGFTFSIYSMNWVRQAPGKGLEWVSSIGSSGGTTYYADSVKGRFTISRDNSKNTLYLQMNSLRAEDTAVYYCAGSQWLYGMDVWGQGTTVTVSS
VL: DIQMTQSPSSLSASVGDRVTITCRSSQRIMTYLNWYQQKPGKAPKLLIFVASHSQSGVPSRFRGSGSETDFTLTISGLQPEDSATYYCQQSFWTPLTFGGGTKVEIKR
notes: also called biotinylated-RAM9

From patent US20150160235A1 (Takeda / Millennium, published 2015)
